Measured values reported in US20170015742A1 (published 2017).

What was measured:
PDGF-BB = target: T1, PDGF-BB (human, UniProt P01127 82-190, limits assumed); assay: Biacore SPR; DVD-Ig captured on anti-human Fc, antigen injected
T1 construct: also called human PDGF-BB; hPDGF-BB
Experimental: (§1) For example, approximately 9000 RU of goat anti-human Fc specific polyclonal antibody (Thermo Fisher Scientific Inc., Rockford, Ill.) diluted in 10 mM sodium acetate (pH 4.5) is directly immobilized across a CM5 research grade biosensor chip using a standard amine coupling kit according to manufacturer's instructions and procedures at 25 μg/ml. Unreacted moieties on the biosensor surface were blocked with ethanolamine. For kinetic analysis, rate equations derived from the 1:1 Langmuir binding model were fitted simultaneously to multiple antigen injections (using global fit analysis) with the use of Scrubber 2 (BioLogic Software), Biacore Biaevaluation 4.0.1 software or Biacore T100 Evaluation software. Purified antibodies or DVD-Ig molecules were diluted in running buffer for capture across goat anti-human Fc reaction surfaces. Antibodies or DVD-Ig molecules to be captured as a ligand (1 μg/ml) were injected over reaction matrices at a flow rate of 10 μl/minute. During the assay, all measurements were referenced against the capture surface alone (i.e., with no captured antibody or DVD-Ig molecule). […] The equilibrium dissociation constant KD (M) of the reaction between antibodies and the target antigen was then calculated from the kinetic rate constants by the following formula: KD=Koff/Kₒₙ. Binding was recorded as a function of time and kinetic rate constants were calculated.

VEGF-A = target: T2, VEGF-A (human, UniProt P15692 207-395); assay: as above
T2 construct: also called hVEGF165
Experimental: as §1

T1 sequence (P01127 82-190 limits assumed): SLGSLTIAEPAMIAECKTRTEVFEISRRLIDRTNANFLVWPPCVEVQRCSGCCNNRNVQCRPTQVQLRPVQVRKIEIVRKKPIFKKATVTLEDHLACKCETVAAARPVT
T2 sequence (P15692 other isoform, or with tags, fused parts or gaps limits assumed): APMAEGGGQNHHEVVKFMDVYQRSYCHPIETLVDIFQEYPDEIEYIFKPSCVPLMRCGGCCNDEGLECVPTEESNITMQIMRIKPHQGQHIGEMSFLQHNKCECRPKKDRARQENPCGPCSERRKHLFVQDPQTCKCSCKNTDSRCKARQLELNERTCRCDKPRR

B1: 9E8.4E-GS-9A8.12 (PR-1578137) (bispecific antibody, human IgG1, kappa, L234A L235A)
heavy: EVTLRESGPALVKPTQTLTLTCTFSGFSLSTYGMGVGWIRQPPGKALEWLANIWWDDDKYYNPSLKNRLTISKDTSKNQVVLTMTNMDPVDTATYYCARIESIGTTYSFDYWGQGTMVTVSSGGGGSGGGGSEVQLVQSGAEVKKPGASVKVSCKASGYTFTNYGMYWVRQAPGQGLEWMGWINTETGKPIYADDFKGRVTMTTDTSTSTAYMELRSLRSDDTAVYYCARVDYDGSFWFAYWGQGTLVTVSSASTKGPSVFPLAPSSKSTSGGTAALGCLVKDYFPEPVTVSWNSGALTSGVHTFPAVLQSSGLYSLSSVVTVPSSSLGTQTYICNVNHKPSNTKVDKKVEPKSCDKTHTCPPCPAPEAAGGPSVFLFPPKPKDTLMISRTPEVTCVVVDVSHEDPEVKFNWYVDGVEVHNAKTKPREEQYNSTYRVVSVLTVLHQDWLNGKEYKCKVSNKALPAPIEKTISKAKGQPREPQVYTLPPSREEMTKNQVSLTCLVKGFYPSDIAVEWESNGQPENNYKTTPPVLDSDGSFFLYSKLTVDKSRWQQGNVFSCSVMHEALHNAYTQKSLSLSPGK
light: EFVLTQSPGTLSLSPGERATLSCERSSGDIGESYVSWYQQKPGQAPRLVIYADDQRPSGIPDRFSGSGSGTDFTLTISRLEPEDFAVYYCQSYDINIDIVFGGGTKVEIKRGGSGGGGSGDTQLTQSPSSLSASVGDRVTITCRASESVSTVIHWYQQKPGKQPKLLIHGASNLESGVPSRFSGSGSGTDFTLTISSLQPEDFATYFCQQHWNDPPTFGQGTKLEIKRTVAAPSVFIFPPSDEQLKSGTASVVCLLNNFYPREAKVQWKVDNALQSGNSQESVTEQDSKDSTYSLSSTLTLSKADYEKHKVYACEVTHQGLSSPVTKSFNRGEC
notes: DVD-Ig: outer hBDI-9E8.4E (PDGF), inner hBEW-9A8.12 (VEGF), linkers GS-H10/GS-L10; Human IgG1 L234A, L235A, H435A with kappa
Kd (PDGF-BB): 8.8 pM
kon (PDGF-BB): 5e+07 M⁻¹ s⁻¹
Kd (VEGF-A): 380 pM
kon (VEGF-A): 470000 M⁻¹ s⁻¹

B2: CL-34565_GS_CL-33675 (PR-1613183) (bispecific antibody, human IgG1, kappa, L234A L235A)
heavy: EVQLVQSGSELKKPGASVKVSCKASGYTFTDYGMYWVRQAPGQGLEWMGWIDTETGDPTYADDFKGRFVFSLDTSVSTAYLQISSLKAEDTAVYYCARTNYYYRNYMFYFDYWGQGTMVTVSSGGGGSGGGGSEVTLRESGPALVKPTQTLTLTCTFSGFSLSTYGMGVGWIRQPPGKALEWLANIWWDDDKYYNPSLKNRLTISKDTSKNQVVLTMTNMDPVDTATYYCARIESSGPKYSFDYWGQGTMVTVSSASTKGPSVFPLAPSSKSTSGGTAALGCLVKDYFPEPVTVSWNSGALTSGVHTFPAVLQSSGLYSLSSVVTVPSSSLGTQTYICNVNHKPSNTKVDKKVEPKSCDKTHTCPPCPAPEAAGGPSVFLFPPKPKDTLMISRTPEVTCVVVDVSHEDPEVKFNWYVDGVEVHNAKTKPREEQYNSTYRVVSVLTVLHQDWLNGKEYKCKVSNKALPAPIEKTISKAKGQPREPQVYTLPPSREEMTKNQVSLTCLVKGFYPSDIAVEWESNGQPENNYKTTPPVLDSDGSFFLYSKLTVDKSRWQQGNVFSCSVMHEALHNAYTQKSLSLSPGK
light: EIVLTQSPATLSLSPGERATLFCRASQSVSNHMHWYQQKPGQAPRLLIYGASILESGVPARFSGSGSGTDFTLTISSLEPEDFAVYYCQQSWYDPITFGQGTKLEIKGGSGGGGSGGEIVLTQSPGTLSLSPGERATLSCRASSGSIWYSFVSWYQQKPGQAPRLLIYADDQRASGIPDRFSGSGSGTDFTLTISRLEPEDFAVYYCQSYGINIDVVFGGGTKVEIKRTVAAPSVFIFPPSDEQLKSGTASVVCLLNNFYPREAKVQWKVDNALQSGNSQESVTEQDSKDSTYSLSSTLTLSKADYEKHKVYACEVTHQGLSSPVTKSFNRGEC
notes: DVD-Ig: outer CL-34565 (VEGF), inner CL-33675 (PDGF), linkers GS-H10/GS-L10(dR); Human IgG1 L234A, L235A, H435A with kappa
Kd (PDGF-BB): 0.19 pM
kon (PDGF-BB): 6e+07 M⁻¹ s⁻¹
Kd (VEGF-A): 1.7 pM
kon (VEGF-A): 1.2e+07 M⁻¹ s⁻¹

B3: CL-34565_GS_9E8.4 (PR-1613184) (bispecific antibody, human IgG1, kappa, L234A L235A)
heavy: EVQLVQSGSELKKPGASVKVSCKASGYTFTDYGMYWVRQAPGQGLEWMGWIDTETGDPTYADDFKGRFVFSLDTSVSTAYLQISSLKAEDTAVYYCARTNYYYRNYMFYFDYWGQGTMVTVSSGGGGSGGGGSEVTLRESGPALVKPTQTLTLTCTFSGFSLSTYGMGVGWIRQPPGKALEWLANIWWDDDKYYNPSLKNRLTISKDTSKNQVVLTMTNMDPVDTATYYCARIESIGTTYSFDYWGQGTMVTVSSASTKGPSVFPLAPSSKSTSGGTAALGCLVKDYFPEPVTVSWNSGALTSGVHTFPAVLQSSGLYSLSSVVTVPSSSLGTQTYICNVNHKPSNTKVDKKVEPKSCDKTHTCPPCPAPEAAGGPSVFLFPPKPKDTLMISRTPEVTCVVVDVSHEDPEVKFNWYVDGVEVHNAKTKPREEQYNSTYRVVSVLTVLHQDWLNGKEYKCKVSNKALPAPIEKTISKAKGQPREPQVYTLPPSREEMTKNQVSLTCLVKGFYPSDIAVEWESNGQPENNYKTTPPVLDSDGSFFLYSKLTVDKSRWQQGNVFSCSVMHEALHNAYTQKSLSLSPGK
light: EIVLTQSPATLSLSPGERATLFCRASQSVSNHMHWYQQKPGQAPRLLIYGASILESGVPARFSGSGSGTDFTLTISSLEPEDFAVYYCQQSWYDPITFGQGTKLEIKGGSGGGGSGGEFVLTQSPGTLSLSPGERATLSCERSSGDIGDSYVSWYQQKPGQAPRLVIYADDQRPSGIPDRFSGSGSGTDFTLTISRLEPEDFAVYYCQSYDINIDIVFGGGTKVEIKRTVAAPSVFIFPPSDEQLKSGTASVVCLLNNFYPREAKVQWKVDNALQSGNSQESVTEQDSKDSTYSLSSTLTLSKADYEKHKVYACEVTHQGLSSPVTKSFNRGEC
notes: DVD-Ig: outer CL-34565 (VEGF), inner hBDI-9E8.4 (PDGF), linkers GS-H10/GS-L10(dR); Human IgG1 L234A, L235A, H435A with kappa
Kd (PDGF-BB): 5.4 pM
kon (PDGF-BB): 3.5e+07 M⁻¹ s⁻¹
Kd (VEGF-A): 1.1 pM
kon (VEGF-A): 1.5e+07 M⁻¹ s⁻¹

B4: CL-34565_GS_3E2.1 (PR-1613185) (bispecific antibody, human IgG1, kappa, L234A L235A)
heavy: EVQLVQSGSELKKPGASVKVSCKASGYTFTDYGMYWVRQAPGQGLEWMGWIDTETGDPTYADDFKGRFVFSLDTSVSTAYLQISSLKAEDTAVYYCARTNYYYRNYMFYFDYWGQGTMVTVSSGGGGSGGGGSEVQLVQSGAEVKKPGSSVKVSCKASGYTFTESYMYWVKQAPGQGLELIGRIDPEDGSTDYVEKFKNKATLTADKSTSTAYMELSSLRSEDTAVYFCARFGARSYFYPMDAWGQGTTVTVSSASTKGPSVFPLAPSSKSTSGGTAALGCLVKDYFPEPVTVSWNSGALTSGVHTFPAVLQSSGLYSLSSVVTVPSSSLGTQTYICNVNHKPSNTKVDKKVEPKSCDKTHTCPPCPAPEAAGGPSVFLFPPKPKDTLMISRTPEVTCVVVDVSHEDPEVKFNWYVDGVEVHNAKTKPREEQYNSTYRVVSVLTVLHQDWLNGKEYKCKVSNKALPAPIEKTISKAKGQPREPQVYTLPPSREEMTKNQVSLTCLVKGFYPSDIAVEWESNGQPENNYKTTPPVLDSDGSFFLYSKLTVDKSRWQQGNVFSCSVMHEALHNAYTQKSLSLSPGK
light: EIVLTQSPATLSLSPGERATLFCRASQSVSNHMHWYQQKPGQAPRLLIYGASILESGVPARFSGSGSGTDFTLTISSLEPEDFAVYYCQQSWYDPITFGQGTKLEIKGGSGGGGSGGETVLTQSPATLSLSPGERATLSCRASESVSTLMHWYQQKPGQQPRLLIYGASNLESGVPARFSGSGSGTDFTLTISSLEPEDFAVYFCQQSWNDPWTFGGGTKVEIKRTVAAPSVFIFPPSDEQLKSGTASVVCLLNNFYPREAKVQWKVDNALQSGNSQESVTEQDSKDSTYSLSSTLTLSKADYEKHKVYACEVTHQGLSSPVTKSFNRGEC
notes: DVD-Ig: outer CL-34565 (VEGF), inner hBFU-3E2.1 (PDGF), linkers GS-H10/GS-L10(dR); Human IgG1 L234A, L235A, H435A with kappa
Kd (PDGF-BB): 12 pM
kon (PDGF-BB): 4.5e+07 M⁻¹ s⁻¹
Kd (VEGF-A): 1.4 pM
kon (VEGF-A): 1.2e+07 M⁻¹ s⁻¹

B5: 4G8.5_GS_CL-33675 (PR-1611291) (bispecific antibody, human IgG1, kappa, L234A L235A)
heavy: EIQLVQSGSELKKPGASVKVSCKASGYTFTNYGMYWVRQAPGQGLEYMGWINTETGKPTYADDFKGRFVFSLDTSVSTAYLQISSLKAEDTAVYFCARTNYYYRSYIFYFDYWGQGTMVTVSSGGGGSGGGGSEVTLRESGPALVKPTQTLTLTCTFSGFSLSTYGMGVGWIRQPPGKALEWLANIWWDDDKYYNPSLKNRLTISKDTSKNQVVLTMTNMDPVDTATYYCARIESSGPKYSFDYWGQGTMVTVSSASTKGPSVFPLAPSSKSTSGGTAALGCLVKDYFPEPVTVSWNSGALTSGVHTFPAVLQSSGLYSLSSVVTVPSSSLGTQTYICNVNHKPSNTKVDKKVEPKSCDKTHTCPPCPAPEAAGGPSVFLFPPKPKDTLMISRTPEVTCVVVDVSHEDPEVKFNWYVDGVEVHNAKTKPREEQYNSTYRVVSVLTVLHQDWLNGKEYKCKVSNKALPAPIEKTISKAKGQPREPQVYTLPPSREEMTKNQVSLTCLVKGFYPSDIAVEWESNGQPENNYKTTPPVLDSDGSFFLYSKLTVDKSRWQQGNVFSCSVMHEALHNAYTQKSLSLSPGK
light: ATQLTQSPSLSASVGDRVTITCRASESVSTHMHWYQQKPGKQPKLLIYGASNLESGVPSRFSGSGSGTDFTLTISSLQPEDFATYFCQQSWNDPFTFGQGTKLEIKGGSGGGGSGGEIVLTQSPGTLSLSPGERATLSCRASSGSIWYSFVSWYQQKPGQAPRLLIYADDQRASGIPDRFSGSGSGTDFTLTISRLEPEDFAVYYCQSYGINIDVVFGGGTKVEIKRTVAAPSVFIFPPSDEQLKSGTASVVCLLNNFYPREAKVQWKVDNALQSGNSQESVTEQDSKDSTYSLSSTLTLSKADYEKHKVYACEVTHQGLSSPVTKSFNRGEC
notes: DVD-Ig: outer hBDB-4G8.5 (VEGF), inner CL-33675 (PDGF), linkers GS-H10/GS-L10(dR); Human IgG1 L234A, L235A, H435A with kappa
Kd (PDGF-BB): 0.74 pM
kon (PDGF-BB): 1.6e+07 M⁻¹ s⁻¹
Kd (VEGF-A): 6.6 pM
kon (VEGF-A): 4.7e+06 M⁻¹ s⁻¹
